B1: 18-nt match checkpoint: λ1 sgRNA (3-stem loop) / TS / NTS (mixed)
RNA: GACGCAUAAAGAUGAGACGCGUUUUAGAGCUAGAAAUAGCAAGUUAAAAUAAGGCUAGUCCGUUAUCAACUUGAAAAAGUGGCACCGAGUCGGUGCUUUU
DNA 1: CGTGATTCCAGCGTCTCATCTTTATGCGAGTGTACTCG
DNA 2: CGAGTACACTATTGCGGGACGCTATTATTGGAATCACG
B2: 18-nt match catalytic: λ1 sgRNA (3-stem loop) / TS / NTS (mixed)
RNA: B1 RNA
DNA 1: CGTGATTCCAGCGTCTCATCTTTATGCGAGTGTACTCGTCTTGC
DNA 2: GCAAGACGAGTACACTCGCATAAAACGCTATTATTGGAATCACG

Tests used:
SpCas9 wild type [1] = biological target: T1, SpCas9 wild type (Streptococcus pyogenes, UniProt Q99ZW2 1-1368); experiment: cryo-EM; 1 mM Mg2+; checkpoint state; SEC binding: 20 mM HEPES-KOH pH 7.5, 200 mM KCl, 2 mM MgCl2, room temperature, 371 pmol dCas9, 400 pmol sgRNA, 250 pmol DNA; crystal complex: 20 mM HEPES-KOH pH 7.5, 250 mM KCl, 1 mM DTT, crystals at 20 C; conditions: protein: recombinant; tags: His6-MBP-TEV tag removed by TEV protease; sgRNA strand 1; TS/NTS duplex with internal mismatched region; 18 nt guide-TS complementarity
SpCas9 wild type [2] = biological target: T1, SpCas9 wild type; experiment: cryo-EM; 10 mM Mg2+; catalytically active state, TS and NTS cleaved; SEC binding: 20 mM HEPES-KOH pH 7.5, 200 mM KCl, 2 mM MgCl2, room temperature, 371 pmol dCas9, 400 pmol sgRNA, 250 pmol DNA; crystal complex: 20 mM HEPES-KOH pH 7.5, 250 mM KCl, 1 mM DTT, crystals at 20 C; conditions: protein: recombinant; tags: His6-MBP-TEV tag removed by TEV protease; sgRNA strand 1; TS/NTS duplex with internal mismatched region; 18 nt guide-TS complementarity; both DNA strands cleaved in structure

T1 sequence (Q99ZW2 whole entry): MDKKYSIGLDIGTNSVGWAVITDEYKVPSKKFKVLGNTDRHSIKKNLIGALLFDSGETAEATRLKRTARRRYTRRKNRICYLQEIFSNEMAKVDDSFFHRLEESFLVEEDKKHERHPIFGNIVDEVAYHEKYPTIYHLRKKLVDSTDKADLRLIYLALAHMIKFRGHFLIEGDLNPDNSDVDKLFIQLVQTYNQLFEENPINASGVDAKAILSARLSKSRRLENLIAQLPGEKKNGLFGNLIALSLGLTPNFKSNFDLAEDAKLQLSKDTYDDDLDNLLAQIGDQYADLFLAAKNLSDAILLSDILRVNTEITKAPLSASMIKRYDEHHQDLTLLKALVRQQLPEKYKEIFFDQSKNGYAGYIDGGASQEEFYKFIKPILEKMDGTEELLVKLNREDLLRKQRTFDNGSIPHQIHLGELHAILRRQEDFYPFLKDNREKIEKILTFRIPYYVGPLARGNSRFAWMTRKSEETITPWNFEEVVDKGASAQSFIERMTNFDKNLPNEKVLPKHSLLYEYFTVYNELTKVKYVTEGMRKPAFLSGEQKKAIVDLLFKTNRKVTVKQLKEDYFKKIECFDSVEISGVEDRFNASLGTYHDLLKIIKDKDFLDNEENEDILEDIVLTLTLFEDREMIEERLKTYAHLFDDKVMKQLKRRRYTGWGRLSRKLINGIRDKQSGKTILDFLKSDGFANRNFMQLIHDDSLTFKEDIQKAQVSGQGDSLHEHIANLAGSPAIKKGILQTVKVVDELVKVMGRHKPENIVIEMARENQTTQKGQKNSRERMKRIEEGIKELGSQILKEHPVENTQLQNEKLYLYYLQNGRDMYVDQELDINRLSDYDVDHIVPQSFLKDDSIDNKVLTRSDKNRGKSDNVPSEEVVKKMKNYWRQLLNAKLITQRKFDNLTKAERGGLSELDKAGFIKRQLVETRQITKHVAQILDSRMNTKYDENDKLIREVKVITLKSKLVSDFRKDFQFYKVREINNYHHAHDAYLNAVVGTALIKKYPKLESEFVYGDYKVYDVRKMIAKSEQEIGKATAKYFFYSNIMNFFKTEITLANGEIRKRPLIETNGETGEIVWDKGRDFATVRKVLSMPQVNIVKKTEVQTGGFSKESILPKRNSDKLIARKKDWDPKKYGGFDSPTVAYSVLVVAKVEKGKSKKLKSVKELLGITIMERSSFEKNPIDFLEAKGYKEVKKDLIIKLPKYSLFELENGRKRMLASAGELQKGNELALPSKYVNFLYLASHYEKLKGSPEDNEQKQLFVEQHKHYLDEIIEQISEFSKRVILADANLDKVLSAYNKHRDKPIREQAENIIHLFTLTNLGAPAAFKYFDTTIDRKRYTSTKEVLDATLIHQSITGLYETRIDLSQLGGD

| Binder | binding result (SpCas9 wild type [1]) | binding result (SpCas9 wild type [2]) |
| --- | --- | --- |
| B1 | binds | – |
| B2 | – | binds |

From article PMC9433323, “R-loop formation and conformational activation mechanisms of Cas9”
